From US20060105951A1

What was measured:
[1] = target: melanocortin 4 receptor (MC4R) (Homo sapiens) (UniProt P32245); experiment: cell-based or functional assay
[2] = target: melanocortin 4 receptor (MC4R) (Homo sapiens) (UniProt P32245); experiment: competitive binding assay (range of obtained IC50 values); competitor [125I]-NDP-alpha-MSH

UniProt P32245, sequence (P32245 whole entry V103I): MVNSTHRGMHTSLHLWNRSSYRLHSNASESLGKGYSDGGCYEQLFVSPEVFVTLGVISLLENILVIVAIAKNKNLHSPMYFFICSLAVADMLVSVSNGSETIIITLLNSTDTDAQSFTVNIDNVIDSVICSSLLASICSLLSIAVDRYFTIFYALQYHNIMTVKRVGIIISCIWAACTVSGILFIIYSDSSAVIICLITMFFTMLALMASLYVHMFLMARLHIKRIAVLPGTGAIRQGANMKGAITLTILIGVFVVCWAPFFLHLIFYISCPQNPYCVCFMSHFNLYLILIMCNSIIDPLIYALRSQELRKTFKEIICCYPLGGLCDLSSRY

Substance: melanotan II (MTII) (peptide)
- EC50, cAMP production, CHOK1 Clone 1 (high MC4R expression) [1]: 0.52 nM
- EC50, cAMP production, CHOK1 Clone 2 (low MC4R expression) [1]: 0.52 nM
- IC50 [2]: 5 to 30 nM
